Source: US20250207145A1, “URIDINE DIPHOSPHATE-GLYCOSYLTRANSFERASE AND A […], TISSUE, AND ORGANISM COMPRISING SAME” (YEDA RESEARCH AND DEVELOPMENT CO. LTD., priority 2022, published 2025)

What was measured:
Type in all cases: biochemical
[1] = In vitro assays with purified UGTs and an array of cannabinoid substrates; conditions: purified enzymes
Experimental: (§1) Selected UGT genes from Helichrysum were individually cloned into the pET28b vector and expressed in E. coli BL21 (DE3) cells. Bacterial starters were grown overnight in LB medium at 37° C., diluted in fresh LB 1:100, and re-incubated at 37° C. When cultures reached A600=0.6, protein expression was induced with 400 μM of isopropyl-1-thio-β-d-galactopyranoside (IPTG) overnight at 15° C. Bacterial cells were lysed by sonication in 50 mM Tris-HCl pH 8, 0.5 mM phenylmethylsulfonyl fluoride (PMSF, Sigma Aldrich) solution in isopropanol, 10% glycerol and protease inhibitor cocktail (Sigma Aldrich), and 1 mg ml-1 lysozyme (Sigma Aldrich). The whole-cell extract was either kept for functional activity or used for protein purification. Purification of proteins was performed on Ni-NTA agarose beads (Adar Biotech). The proteins were eluted with 200 mM imidazole (Fluka) in buffer containing 50 mM NaH2PO4, pH 8 and 0.5 M NaCl. Protein concentration of the eluted fractions was measured with Pierce™ 660 nm protein assay reagent (Thermo Scientific).
Recombinant UGT assays using different aromatic substrates were performed by mixing 1.5 μl of the UDP solution (80 mM, final concentration: 2.5 mM), 27.5 μl Tris buffer (100 mM), 1 μl of each of the substrates (50 mM, final concentration: 1 mM) and 20 μl of the lysate enzyme solution. The reactions were incubated at 30° C. for 1 h. To stop the reactions, 50 μl methanol were added to each tube, vortexed for 10 s, centrifuged at maximum speed for 10 min, and then the supernatant was recovered and used for UPLC-qTOF analysis. The assay with the purified UGTs was performed by mixing 2 μl of the cannabinoid acceptors (OA, DHSA, CBGA, heliCBGA, CBDA, A9-THCA, CBCA, olivetol, CBG, CBD or 49-THC, hexanoylphloroglucinol, naringenin chalcone or pinocembrin chalcone) in the presence of 1.5 μl UDP 80 mM, 46.5 μl Tris buffer (100 mM, pH 8.0) and 1 μl of each enzyme. To stop the reactions, 100 μl methanol was added to each tube, and the compounds were extracted and analyzed as previously described. Kinetics assays were performed with the purified enzymes (1.5 μg/μl) dissolved in 45 μl Tris buffer (100 mM, pH 8.0) and substrates were added using varying (0.5 μM-3 mM) and constant (1 mM) concentrations of OA and UDP and the total reaction volume was 50 μl. To stop the reactions, 100 μl methanol was added to each tube, and the compounds were extracted and analyzed as previously described.
Next, the inventors recombinantly expressed eleven of the thirteen UGTs from Helichrysum in E. coli and used the crude lysate to examine the activity of the proteins using OA, CBGA, and heliCBGA in a reaction including UDP-Glc as the sugar donor. […] The inventors screened the LC/HRMS chromatograms for glucosylated and diglucosylated products according to the theoretical m/z values. […] All the enzymes were active with varying substrate specificity and products produced.

[2] = UGT enzyme assay with crude E. coli lysates, UDP-Glc as sugar donor; conditions: crude lysate, substrates OA, CBGA, heliCBGA, FIG. 8
Experimental: as §1, with “The whole-cell extract was either kept for functional activity or used for protein purification. Purification of proteins was performed on Ni-NTA agarose beads (Adar Biotech). The proteins were eluted with 200 mM imidazole (Fluka) in buffer containing 50 mM NaH2PO4, pH 8 and 0.5 M NaCl.” left out
Recombinant UGT assays using different aromatic substrates were performed by mixing 1.5 μl of the UDP solution (80 mM, final concentration: 2.5 mM), 27.5 μl Tris buffer (100 mM), 1 μl of each of the substrates (50 mM, final concentration: 1 mM) and 20 μl of the lysate enzyme solution. […] To stop the reactions, 100 μl methanol was added to each tube, and the compounds were extracted and analyzed as previously described. […] […]

[3] = Steady state kinetics assays of purified UGTs with OA and UDP; conditions: OA 0.5 μM-3 mM varying, UDP 1 mM constant; compared HuUGT11, HuUGT13, OsUGT, SrUGT; FIG. 12
Experimental: FIGS. 12A-12B include curves and a table showing comparison of steady state kinetic analysis of HuUGT11 and HuUGT13 versus OsUGT and SrUGT, with olivetolic acid and UDP-glc. (12A) The Michaelis-Menten Km value of each enzyme was calculated using varying (0.5 μM-3 mM) and constant (1 mM) concentrations of olivetolic acid and […] (n=3 technically independent samples; measurements were plotted individually). Since there was no analytical standard available for Glc-OA, V0 was calculated using the calibration curve of OA. (12B) A summary of the results presented in 12A. V0 and Vmax were calculated using the calibration curve of OA since there was no analytical standard available for Glc-OA.
Recombinant UGT assays using different aromatic substrates were performed by mixing 1.5 μl of the UDP solution (80 mM, final concentration: 2.5 mM), 27.5 μl Tris buffer (100 mM), 1 μl of each of the substrates (50 mM, final concentration: 1 mM) and 20 μl of the lysate enzyme solution. The reactions were incubated at 30° C. for 1 h. […] To stop the reactions, 100 μl methanol was added to each tube, and the compounds were extracted and analyzed as previously described. […] To stop the reactions, 100 μl methanol was added to each tube, and the compounds were extracted and analyzed as previously described.

B1: HuUGT13: UDP-glycosyltransferase from Helichrysum umbraculigerum, recombinantly expressed in E. coli (protein, listed as Helichrysum umbraculigerum)
chain: MSLVTNNPHLLVYPLPTSGHIIPLLDLTDLLLRRGLTITVVISTTDLTLLDTLLSSHPTSLHKLYFPDPEIGPSSHPVIARIIATQKLFDPIVKWFESHPSPPVAIISDFFLGWTNELASRLGIRRVVFSPSGALGHSILQSLWRDVAEINAKNVDGNGNYSISFTDIPNSPEFHWWQLSQLLRVHREGDPDFEFFRNGMLANTKSWGIVYNTFERIEKVYIDHVKKQIGHDRVWAIGPLLPEEHGPVGSTARGGSSVVPPHDLLTWLDKKPHDSVVYICFGSRLTLSEKQMSALASALELSNVDFILCVKASGSSFIPSGFEDRVVGRGFVIKGWAPQLAILRHRAVGSFVTHCGWNSTLEGVSSGVMMLTWPMGADQYANAKLLVDQLGVGKRVCEGGPESVPDSTELARLLEESLSGDTSERVKVKELSREANTAVKEGTSIRDLNMFVNLLSEL
- activity on the cannabinoid intermediates [1]: highly active
- activity on the prenylated compounds [1]: almost inactive
- activity of lysates containing HuUGTs on the different substrates [2]: showed activity

B2: HuUGT6: UDP-glycosyltransferase from Helichrysum umbraculigerum, recombinantly expressed in E. coli (protein, listed as Helichrysum umbraculigerum)
chain: MTQKQMQMQPHFLLVTYPAQGHINPSLQFAERLIRLGVKVTFTTTVSAYRRMSKAGNISEFLNFAAFSDGFDDGFNFETDDHGLFLTQLRSRGKDSLKETILSNAKNGTPISCLVYTLLLPWAPEVARGLNVPSAFLWIQPASVLRLYYYYFNGYNELIGDDCNEPSWSIQLPGLPLLKS
- diglucosylation of acid compounds ([1]; UDP-glc, FIG. 11): only observed in case of HuUGT6

B3: HuUGT11: UDP-glycosyltransferase from Helichrysum umbraculigerum, recombinantly expressed in E. coli (protein, listed as Helichrysum umbraculigerum)
chain: MGSLKKGAHILIFPFPAQGHMLPLLDLTHHLATNGLTITILVTPKNLPILNPLLSSSPNIQPLVFPFPPHPRLPPHVENVKDIGNHANVPITNSLAKLQDQIIQWFNSHHNPPVAIISDFFLGWTQHLANKLGIPRVGFFSSGAYLTAVLDYVCHNIKTVRSQEETVFHDLPNSPCFKFEHLPGLAQIYKESDPEWELVLDGHIANGLSWGWIVNTFDGLESRYMEYLTKKMGVGRVFGVGPVNLLNGSDPMTRGKSESGSDSGVLNWLDGKPDGSVLYVCFGSQKFLTNDQMEGLSIGLEQSGVHYVWVVKDEQGDAIRSGSGRGLVVTGWAPQVSILGHGAVGGFLSHCGWNSVLEAIVNGVMILAWPMEADQFVNAKLLVDDHGIGVWVCEGPNTVPDSTELARKIGESMSTDKSEKVKAKEMKNKANEAVKEGGSSSMELSRLVKELSNFETNGP
- activity on the cannabinoid intermediates [1]: highly active
- activity on the prenylated compounds [1]: almost inactive
- catalytic performance in kinetics assays versus the other enzymes [3]: impressive catalytic advantage
- activity of lysates containing HuUGTs on the different substrates [2]: showed activity
